Source: PMC9638944, “ATM-mediated ELL phosphorylation enhances its self-association through increased EAF1 interaction and inhibits global transcription during genotoxic stress” (Nucleic Acids Research, 2022)
One block for each molecule: values may come before it.

Assays:
EAF1 = EAF1 (UniProt Q96JC9); assay: IP of tagged ELL, EAF1 blot; settings: reference: wild type ELL; sites T551,S561,S589
[1] = target: the molecule itself; assay: co-sedimentation; glycerol gradient of purified recombinant His-GFP-ELL
GST-ELL = target: T1, GST-ELL (human, UniProt P55199 1-621); assay: pull-down; GST or GST-ELL bound to glutathione beads incubated with purified prey in 20 mM Tris-Cl pH 8, 20% glycerol, 2 mM EDTA, 150 mM KCl, BSA 20 ng/μl, 0.1% NP-40, 10–12 h, 4°C; immunoblot; some panels with purified EAF1 added; settings: both partners purified
T1 construct: ELL (aka ELL1), human; Cloned in pET-GST
T1 sequence (looked up): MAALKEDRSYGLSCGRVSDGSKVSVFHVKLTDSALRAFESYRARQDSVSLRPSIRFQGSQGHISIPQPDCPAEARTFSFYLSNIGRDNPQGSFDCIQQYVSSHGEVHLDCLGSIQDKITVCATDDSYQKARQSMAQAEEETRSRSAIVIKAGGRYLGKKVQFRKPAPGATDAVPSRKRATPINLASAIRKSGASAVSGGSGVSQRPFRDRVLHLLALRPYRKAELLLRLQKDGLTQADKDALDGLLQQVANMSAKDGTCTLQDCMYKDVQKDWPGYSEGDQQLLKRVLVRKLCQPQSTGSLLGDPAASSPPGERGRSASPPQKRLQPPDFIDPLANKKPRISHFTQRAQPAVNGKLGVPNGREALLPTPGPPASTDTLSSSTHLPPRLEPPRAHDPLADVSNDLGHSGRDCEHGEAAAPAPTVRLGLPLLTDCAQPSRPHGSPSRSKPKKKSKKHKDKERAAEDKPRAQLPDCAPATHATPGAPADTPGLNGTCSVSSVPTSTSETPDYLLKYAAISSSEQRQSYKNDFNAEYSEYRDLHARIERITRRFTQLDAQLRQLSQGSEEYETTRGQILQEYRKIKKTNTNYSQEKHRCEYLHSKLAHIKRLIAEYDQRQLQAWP

binding against the reference (EAF1): weaker
Molecule: ELL (aka ELL1) (from UniProt P55199) ELL TM (T551A, S561A, S589A)

binding result (GST-ELL): binds
B1: His-GFP-ELL (natural protein, human, UniProt P55199 1-621, looked up)
chain: T1 sequence (looked up)
notes: ELL (aka ELL1), human; Cloned in pET-11d; also called GFP-ELL (in vitro); purified recombinant ELL protein; source: E. coli BL21(DE3), purified (Ni-NTA)
binding result [1]: binds
